Results: paper PMC3936483

Key:
[1] = biological target: CTRP2 (C1q/TNF-related protein 2), C-terminal FLAG- or HA-tagged, full length (mouse) (UniProt Q9D8U4); experiment: SEC
[2] = biological target: serum CTRP2 (mouse (endogenous in C57BL/6 serum)) (UniProt Q9D8U4); experiment: SEC

Sequence of serum CTRP2 (Q9D8U4 25-294): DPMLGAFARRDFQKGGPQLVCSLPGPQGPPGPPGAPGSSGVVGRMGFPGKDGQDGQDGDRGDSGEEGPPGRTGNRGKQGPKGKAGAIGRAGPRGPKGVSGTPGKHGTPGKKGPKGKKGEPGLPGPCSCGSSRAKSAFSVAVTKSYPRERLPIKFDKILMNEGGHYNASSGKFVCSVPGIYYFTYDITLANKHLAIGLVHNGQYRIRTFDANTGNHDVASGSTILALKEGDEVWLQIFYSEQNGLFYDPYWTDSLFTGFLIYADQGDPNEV
Sequence of CTRP2 (C1q/TNF-related protein 2), C-terminal FLAG- or HA-tagged, full length (Q9D8U4 25-294): as above

Substance	stoichiometry N [1]	stoichiometry N [2]
CTRP2 (C1q/TNF-related protein 2), C-terminal FLAG- or HA-tagged, full length (from UniProt Q9D8U4 25-294) (natural protein)	3	–
serum CTRP2 (from UniProt Q9D8U4 25-294) (natural protein)	–	3
